This is an account of results in article PMC8910471, “The Finely Coordinated Action of SSB and NurA/HerA Complex Strictly Regulates the DNA End Resection Process in Saccharolobus solfataricus”.

The target in data set [1] is T1, SSB (Saccharolobus solfataricus, UniProt Q97W73 1-148).
T1 sequence: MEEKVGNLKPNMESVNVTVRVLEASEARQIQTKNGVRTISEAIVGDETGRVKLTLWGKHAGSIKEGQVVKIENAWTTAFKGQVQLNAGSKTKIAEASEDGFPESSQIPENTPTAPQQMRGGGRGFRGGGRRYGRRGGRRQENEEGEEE
Kind of data set: EMSA; with NurA/HerA: SSB binding strongly stimulated; EMSA: 5 pmol fluorescent DNA in 10 ul, 20 mM HEPES/NaOH pH 7.5, 35 mM beta-mercaptoethanol, 500 mM NaCl, 50 mM MgCl2 (so in the source), 10 min room temperature, 5% PAGE in 0.5x TBE. Conditions: protein: recombinant. A general note: A gel shift assay detects complexes by their altered migration in electrophoresis.

The target of data set [2] is T2, HerA (Saccharolobus solfataricus, UniProt Q97WG8 1-500).
T2 sequence: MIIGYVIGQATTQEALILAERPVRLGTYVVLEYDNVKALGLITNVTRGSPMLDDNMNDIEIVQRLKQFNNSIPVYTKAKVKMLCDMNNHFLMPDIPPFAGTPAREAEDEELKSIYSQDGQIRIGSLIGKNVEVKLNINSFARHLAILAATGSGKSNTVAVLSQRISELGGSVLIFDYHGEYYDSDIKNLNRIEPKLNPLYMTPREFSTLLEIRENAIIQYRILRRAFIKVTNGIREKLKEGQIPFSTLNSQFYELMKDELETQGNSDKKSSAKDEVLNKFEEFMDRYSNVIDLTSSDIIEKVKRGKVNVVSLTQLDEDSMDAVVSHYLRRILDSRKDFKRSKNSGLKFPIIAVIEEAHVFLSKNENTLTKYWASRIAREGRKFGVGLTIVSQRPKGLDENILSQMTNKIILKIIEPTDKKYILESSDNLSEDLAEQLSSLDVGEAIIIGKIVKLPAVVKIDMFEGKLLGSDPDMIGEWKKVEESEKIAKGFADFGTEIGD
Kind of data set: EMSA; in NurA/HerA with SSB: HerA binding not reduced on fork; EMSA: 5 pmol fluorescent DNA in 10 ul, 20 mM HEPES/NaOH pH 7.5, 35 mM beta-mercaptoethanol, 500 mM NaCl, 50 mM MgCl2 (so in the source), 10 min room temperature, 5% PAGE in 0.5x TBE. Conditions: protein: recombinant; chain copies: 6; fork 1:2; 50 bp duplex, unpaired 5' T20 of strand 1 and 3' 20 nt of strand 2.

In data set [3] the target is T2, HerA. Kind of data set: EMSA; HerA alone, increasing amounts; EMSA: 5 pmol fluorescent DNA in 10 ul, 20 mM HEPES/NaOH pH 7.5, 35 mM beta-mercaptoethanol, 500 mM NaCl, 50 mM MgCl2 (so in the source), 10 min room temperature, 5% PAGE in 0.5x TBE. Conditions: protein: recombinant; chain copies: 6; single strand.
The target of a further data set is T3, NurA (Saccharolobus solfataricus, UniProt Q97WH1 1-339).
T3 sequence: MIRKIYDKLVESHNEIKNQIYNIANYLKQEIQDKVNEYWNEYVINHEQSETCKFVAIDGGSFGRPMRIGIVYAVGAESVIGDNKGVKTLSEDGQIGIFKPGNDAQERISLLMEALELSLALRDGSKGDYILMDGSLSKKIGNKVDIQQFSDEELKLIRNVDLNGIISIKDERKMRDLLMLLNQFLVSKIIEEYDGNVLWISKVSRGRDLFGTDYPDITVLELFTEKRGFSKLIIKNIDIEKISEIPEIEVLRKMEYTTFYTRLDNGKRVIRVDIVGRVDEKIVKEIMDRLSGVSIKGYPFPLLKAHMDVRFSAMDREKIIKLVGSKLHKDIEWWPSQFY
Kind of data set: EMSA; with SSB: NurA binding not significantly influenced; EMSA: 5 pmol fluorescent DNA in 10 ul, 20 mM HEPES/NaOH pH 7.5, 35 mM beta-mercaptoethanol, 500 mM NaCl, 50 mM MgCl2 (so in the source), 10 min room temperature, 5% PAGE in 0.5x TBE. Conditions: protein: recombinant; chain copies: 2; single strand.

In data set [4] the target is T1, SSB. As to the kind of experiment: EMSA; 2.5 pmol NurA/HerA, 1.5 pmol SSB, increasing ATP: no effect of ATP on stimulation; EMSA: 5 pmol fluorescent DNA in 10 ul, 20 mM HEPES/NaOH pH 7.5, 35 mM beta-mercaptoethanol, 500 mM NaCl, 50 mM MgCl2 (so in the source), 10 min room temperature, 5% PAGE in 0.5x TBE. Conditions: protein: recombinant; chain copies: 2; single strand.

B1: 70 leadCy5 (70 mer) (ssDNA)
DNA: CGTGACTTGATGTTAACCCTAACCCTAAGAATTCGGCTTAAGTGAGTGTGAGGATATCATGTACGATAGC
As for B1, the binding result in the data set with SSB [1] (chain copies: 2, single strand) is “binds”.

B2: Forked substrate (70 lagFork/70 leadCy5) (dsDNA)
DNA 1: TTTTTTTTTTTTTTTTTTTTCACACTCACTTAAGCCGAATTCTTAGGGTTAGGGTTAACATCAAGTCACG
DNA 2: B1 DNA
As to B2, the binding result is on record as “binds” with SSB [1] (fork 1:2, 50 bp duplex, unpaired 5' T20 of strand 1 and 3' 20 nt of strand 2); “binds” in the data set with HerA [2].

For the molecule GCTATCGTACATGATATCCTC (ssDNA) [21 merTAMRA], the binding result with SSB [1] (chain copies: 2, single strand) is given as “binds”.

For the molecule GCCGTGATCACCAATGCAGATTGACGAACCTTTGCCCACGT (ssDNA) [40 merCy3], the binding result in the data set with SSB [1] (chain copies: 2, single strand) is recorded as “binds”.

Consider GTTTTCCCAGTCACGAC (ssDNA) [17 merTAMRA], for which the binding result in the data set with HerA [3], with NurA and in the data set with SSB [4] was “binds” in each case.
